Experimental data: article PMC2156126

Target: GST-VCA (GST fusion of human N-WASP residues 392-505) on glutathione Sepharose (human) (UniProt O00401)
Assay: pull-down

Chain of GST-VCA (GST fusion of human N-WASP residues 392-505) on glutathione Sepharose (human) (O00401 392-505): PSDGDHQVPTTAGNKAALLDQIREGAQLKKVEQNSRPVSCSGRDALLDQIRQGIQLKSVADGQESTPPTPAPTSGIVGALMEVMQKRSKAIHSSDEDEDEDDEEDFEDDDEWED

Arp2/3 complex endogenous in human platelet extracts (from UniProt P61158;P61160;O15145)
percent depleted from the extract by the beads: > 80%
